Test system: a1;alpha2 (Saccharomyces cerevisiae;Saccharomyces cerevisiae)
Assay: EMSA
Conditions: 1.4 uM a1 constant, 5-fold dilutions of alpha2 from 82 nM, protein dilution buffer 50 mM Tris pH 7.6, 1 mM EDTA, 500 mM NaCl, 10 mM 2-mercaptoethanol …

Row | Substance | binding signal (fold decrease in affinity vs HO(10))
1 | CDC25 ORF site | 5
2 | PRM8 ORF site | 5
3 | PRM9 ORF site | 10
4 | URB1 ORF site | 25
5 | YKL162C ORF site | 10
